# Assay results from paper PMC3839849.
# Read-outs that look alike come from different tables or passages of the source.
# Experiments:
# Assay in all cases: ITC
# [1] = target: CaV1.2 IQ domain TripleA mutant (CaV1.2 F1618A, F1619A, Y1622A) (human)
# [2] = target: CaV1.2 IQ domain TripleA mutant (CaV1.2 F1618A, F1619A, Y1622A) (human); remark: listed apart in the source
# [3] = target: CaV1.2 IQ domain (human)
# [4] = target: CaV1.2 IQ domain (Homo sapiens) (UniProt Q13936)
Substance,Kd [1] [nM],dH [1] [kJ/mol],stoichiometry N [1],Kd [2] [nM],Kd [3] [nM],dH [3] [kJ/mol],Kd [4] [nM]
calcium binding protein 1 (CaBP1) Δ2–15 (natural protein),10.9,-20,0.89,221,,,
"calmodulin (CaM), full-length (from UniProt P0DP23 1-149) (natural protein)",,-44.4,,,0.00085,-24,
"CaBP1 N-lobe, Q9NZU7",,,,,,,1100
